# Assay results from patent US6727084B1, “Cold-active beta-galactosidase, the process for its preparation and the use thereof” (Universite de Liege, priority 1999, dated 2004).
# B1: Pseudoalteromonas haloplanktis LMG P-19143 cold-active β-galactosidase (lac Z), native, SEQ ID NO: 2 (Pseudoalteromonas haloplanktis) (protein)
# chain: MTSLQHIINRRDWENPITVQVNQVKAHSPLNGFKTIEDARENTQSQKKSLNGQWDFKLFDKPEAVDESLLYEKISKELSGDWQSITVPSNWQLHGFDKPIYCNVKYPFAVNPPFVPSDNPTGCYRTEFTITPEQLTQRNHIIFEGVNSAFHLWCNGQWVGYSQDSRLPSEFDLSELLVVGTNRIAVMVIRWSDGSYLEDQDMWWLSGIFRDVNLLTKPQSQIRDVFITPDLDACYRDATLHIKTAINAPNNYQVAVQIFDGKTSLCEPKIQSTNNKRVDEKGGWSDVVFQTIAIRSPKKWTAETPYLYRCVVSLLDEQGNTVDVEAYNIGFRKVEMLNGQLCVNGKPLLIRGVNRHEHHPENGHAVSTADMIEDIKLMKQNNFNAVRTAHYPNHPLFYELCDELGLYVVDEANIETHGMFPMGRLASDPLWAGAFMSRYTQMVERDKNHASIIIWSLGNECGHGANHDAMYGWSKSFDPSRPVQYEGGGANTTATDIICPMYSRVDTDIKDDAVPKYSIKKWLSLPGETRPLILCEYAHAMGNSLGSFDDYWQAFREYPRLQGGFIWDWVDQGLSKIDENGKHYWAYGGDFGDELNDRQFCINGLLFPDRTPHPSLFEAKYSQQHLQFTLREQNQNQNQNQYSIDVFSDYVFRHTDNEKLVWQLIQNGVCVEQGEMALNIAPQSTHTLTIKTKTAFEHGAQYYLNLDVALINDSHFANANHVMDSEQFKLINSNNLNSKSFASATEKSVISVNETDSHLSIENNTFKLVFNQQSGLIEQWLQDDTQVISSPLVDNFYRAPLDNDIGVSEVDNLDPNAWEARWSRAGIGQWQRTCSSINAVQSSVDVRITCVFNYEFNGVLQAQTQWLYTLNNTGTISLNVDVNLNDTLPPMPRIGLSTTINKQSDTKVNWLGLGPFENYPDRKSAARFGYYSLSLNELYTPYIFPTDNGLRSDCQLLSINNLIVTGAFLFAASEYSQNMLTQAKHTNELIADDCIHVHIDHQHMGVGGDDSWSPSTHKEYLLEQKNYNYSLTLTGGITT
# notes: ORF of 1038 residues
# Substrate: OC[C@H]1O[C@@H](O[C@H]2[C@H](O)[C@@H](O)C(O)O[C@@H]2CO)[C@H](O)[C@@H](O)[C@H]1O
# Assay: kinetics of LMG P-19143 β-galactosidase with lactose as substrate (galactose dehydrogenase assay)
# Type: biochemical, Pseudoalteromonas haloplanktis LMG P-19143
# Conditions: other: lactose (1 mM to 50 mM) as substrate, 25° C., pH 7.3
# Text: The definition of enzyme activity units can be defined according to the substrate used with lactose as a substrate, the unit of activity is defined as the amount of enzyme which releases one micro-mole glucose in one minute under standard reaction conditions (temperature, pH). Another commonly used substrate is ortho-nitrophenyl-β-D galactopyranoside (ONPG) and in this case, the unit of activity is defined as the amount of enzyme which hydrolyses one micro-mole of ONPG in one minute under standard reaction conditions.
# Km was also determined at 25° C. with lactose (1 mM to 50 mM) as a substrate.
protein,measurement,value
B1,Km,2400 µM
